# Results as given in patent US20090217392A1.
# Columns and labels:
# [1] = biological target: αvβ3 and αvβ5 integrins on cells that express both (M21, A375S2/A375S.2, HUVEC) (human) (UniProt P06756); assay: flow cytometry on M21 cells; FITC-goat anti-human Fc-labeled CNTO95 at 20 µg/mL, saline instead of competitor
# [2] = biological target: αvβ3 and αvβ5 integrins on cells that express both (M21, A375S2/A375S.2, HUVEC) (human) (UniProt P06756); assay: cell-based or functional assay
# [3] = biological target: αvβ3 and αvβ5 integrins on cells that express both (M21, A375S2/A375S.2, HUVEC) (human) (UniProt P06756); assay: flow cytometry on M21 cells; FITC-goat anti-human Fc-labeled CNTO95 at 2 µg/mL, saline instead of competitor
# [4] = biological target: human αvβ3 integrin on cells (human) (UniProt P06756); assay: flow cytometry on M21 cells; signal of the competitor FITC-labeled CNTO95 at 20 µg/mL; row antibody at 20 µg/mL
# [5] = biological target: human αvβ3 integrin on cells (human) (UniProt P06756); assay: flow cytometry on M21 cells; signal of the competitor FITC-labeled CNTO95 at 2 µg/mL; row antibody at 20 µg/mL; set-up: % Positive: reference not given here
# [6] = biological target: human αvβ5 integrin on cells (human) (UniProt P06756); assay: flow cytometry on M21 cells; signal of the competitor FITC-labeled CNTO95 at 20 µg/mL; row antibody at 20 µg/mL
# [7] = biological target: human αvβ5 integrin on cells (human) (UniProt P06756); assay: flow cytometry on M21 cells; signal of the competitor FITC-labeled CNTO95 at 2 µg/mL; row antibody at 20 µg/mL; set-up: % Positive: reference not given here
# [8] = scale: % of cell adhesion in the absence of antibody
substance,measurement,setting,value
CNTO 95 (antibody),MCF (median channel fluorescence),[1],14.3
same,minimal concentration for complete inhibition of MDAMB435L2 cell adhesion to vitronectin,[2],1.5 µg/mL
same,"A375S.2 cell adhesion to fibrin, antibody 10 µg/ml",[2]; [8],43.3
same,"A375S.2 cell adhesion to fibrinogen, antibody 10 µg/ml",[2]; [8],11.4
same,"A375S.2 cell adhesion to gelatin, antibody 10 µg/ml",[2]; [8],23.2
same,"A375S.2 cell adhesion to vitronectin, antibody 10 µg/ml",[2]; [8],1.4
same,"HUVEC adhesion to fibrin, antibody 10 µg/ml",[2]; [8],45.1
same,"HUVEC adhesion to fibrinogen, antibody 10 µg/ml",[2]; [8],34.5
same,"HUVEC adhesion to gelatin, antibody 10 µg/ml",[2]; [8],54.8
same,"HUVEC adhesion to vitronectin, antibody 10 µg/ml",[2]; [8],3.3
same,MCF (median channel fluorescence),[3],4.33
LM609 (antibody),% Positive,[4],93%
same,MCF (median channel fluorescence),[4],13.3
same,% Positive,[5],110%
same,MCF (median channel fluorescence),[5],4.78
P1F6 (antibody),% Positive,[6],101%
same,MCF (median channel fluorescence),[6],14.5
same,% Positive,[7],112%
same,MCF (median channel fluorescence),[7],4.87
m7E3 IgG (antibody),% Positive,[4],103%
same,MCF (median channel fluorescence),[4],14.7
same,% Positive,[5],132%
same,MCF (median channel fluorescence),[5],5.73
